Experimental data taken from the DeepSol protein solubility set.

Assay: soluble on expression in E. coli; label from the status in PepcDB or PDB records

Row | Sequence | soluble on expression in E. coli
1 | MSRYGRYGGETKVYVGNLGTGAGKGELERAFSYYGPLRTVWIARNPPGFAFVEFEDPRDAEDAVRGLDGKVICGSRVRVELSTGMPRRSRFDRPPARRPFDPNDRCYECGEKGHYAYDCHRYSRRRRSRSRSRSHSRSRGRRYSRSRSRSRGRRSRSASPRRSRSISLRRSRSASLRRSRSGSIKGSRYFQSPSRSRSRSRSISRPRSSRSKSRSPSPKRSRSPSGSPRRSASPERMD | not soluble
2 | MTTPLISIRNLCVDYITDAGDVRACNNVSFDLAPGEVFGLAGESGCGKSTVAFSLMRLHKPPAFITGGEVIFNGEDILKYSDERMQAFRWKEMSMVFQSAMNALNPVLTMEEQFCDVITRHTNMTREQAKRRAEGLLEIVDIHPSRLNDYPHQFSGGMRQRLVIAIALALNPKMIIMDEPTTALDVVVQREILQKIYALKEEFGFSILFITHDLSLMVEFSDRIGIMYSGELIEVAPSKQILETPYHPYTKGLGSSFPPLTGPKTKLTGIPGNPLNLLDIPQGCRFQARCDRVHEACTKVPTVLRQIEHGRFSNCHLYTQSNATIKR | not soluble
3 | MAAAALRSGWCRCPRRCLGSGIQFLSSHNLPHGSTYQMRRPGGELPLSKSYSSGNRKGFLSGLLDNVKQELAKNKEMKESIKKFRDEARRLEESDVLQEARRKYKTIESETVRTSEVLRKKLGELTGTVKESLHEVSKSDLGRKIKEGVEEAAKTAKQSAESVSKGGEKLGRTAAFRALSQGVESVKKEIDDSVLGQTGPYRRPQRLRKRTEFAGDKFKEEKVFEPNEEALGVVLHKDSKWYQQWKDFKENNVVFNRFFEMKMKYDESDNAFIRASRALTDKVTDLLGGLFSKTEMSEVLTEILRVDPAFDKDRFLKQCENDIIPNVLEAMISGELDILKDWCYEATYSQLAHPIQQAKALGLQFHSRILDIDNVDLAMGKMVEQGPVLIITFQAQLVMVVRNPKGEVVEGDPDKVLRMLYVWALCRDQDELNPYAAWRLLDISASSTEQIL | soluble
4 | MLKLKFNEEGLIPVIAQDYRTGEVRMLAYANEEAIKKTLETGYAHYYSRSRKKIWKKGETSGELQKVIEVRVDCDEDALIYVIEQEKDRACHTGERNCFFRDIEGNKVEKPLPFEVLPRLQDVIREKIERKEENSYTAKLVSQGKERVFQKFGEEAVETLIALMKGEKEEVIYESADMLYTFLVSLSVSGIDIKEVMEELIRRFK | soluble
5 | MTTWTLNHNNLTKFLTHAQLEPSLERESGLIYITVPAGEHELPLFFVIRNEGEVLQLVCYFPYQIQQNQRDTTARLLHLVNRDIDIPGFGMDEEQNIIFYRLVIPCLKGEINEDLLRVYIDTIKLICDSFFHAIGLISTGNMDLDELKKQAKLENNQSDQLEP | soluble
6 | LVQGPSLIGIHANEREDIETKKFVNWYLNTKVQWEENSIKTPAEYVADKASYLLPFKNRLNNTNSYNEFVKTAVSQFADKNVTKFAEPADFLSNKVRD | not soluble
7 | MEKNGYIDPYTTVMNYLSITPGKWEIKYNENIRGISGKEHRFDAVYRSQEGEIVTVMVVLRTEDLEKRLDDFKNGSKDVRAKRKFLIVCGEINSDMVSELKSENISILMLPGMFCSQVSSYNADAGSNDAPRSLPDGGIEESQRKRSRANIIMDLIRAINENSNQIPVTRLFYACNINHRMGRSIIEDLEHAGIVILRKTGPNRNVVELTRKGISLINDYEFIREILEK | not soluble
8 | MVMEVDEPAVAATTSQNQPQEHANDFDMDTSEGPIENDETFEPVDQINWKFNQVKGNIDADVHTEADVISCVEFSHDGEYLATGDKGGRVVIFQRDQSGKYVKGVRSREYNVYSTFQSHEPEFDYLKSLEIDEKINQIRWLKKKNAANFILSTNDKTIKLWKISERERKIGDDAWNLPRTNRINTSSFRGRLQIPSIVPMELIVEASPRRVYGNAHTYHVNSISVNSDQETFLSADDLRVNLWNLEITNESFNIVDIKPANMEELTEVITAAEFHPTQCNWFVYSSSKGSIRLCDMRDRALCDAYAKIFEEPEDPQSRSFFSEIIASVSDVKFSHNGRYLLTRDYLTVKVWDLNMESQPVETYPVHNYLRTKLCALYENDSIFDKFECDWSGDDKHILTGSYHNLFRSYARGNNQDAKTWEARPQEPHSQLRSRFVVPSAKRKRNNLSSSGETTEEDLSSDQLQFDRKILHTAWHPKDNIIALAATNNLYIFSDV | not soluble
9 | MNFTDTHCHLADPALRENLPHILTAARKVGVKRFIVPATRPQDWQDVADLAEMPSEHGQIRIALGIHPWFSDGIAERDFVRLETMLAHYPQAWVGEIGLDFYDKTQTSQQRERQIQVFVRQLEIAQTLRRRVIIHNLKATADIAAAVKQTGFAQGGIVHAFSGSAEEARVLTKLGFKIGIGSLLLNPNARKVRDTLKALNDGDFVLETDSPFMLKKEINTPANIPGIAKIAAEIRGTCVEEIAKVTERNADALLGR | not soluble
10 | TKTEALTAEEAAKQYTNSLVEKALKAEKVYATYTQEQVDKIVAAMALAGSEASLQLAKEAHDETGRGVVEDKDTKNHFATEYVYERIKNEKTVGIIGEDKVAGSIEIAAPLGVLAGIVPTTNPTSTTMFKILVALKTRNAIVFAFHPAAQKCSAHAAQILYDAAVKAGAPENIVQWIETPSIANTGALISNKGIASILATGGPGMVNAALKSGNPSMGVGAGNGAVYVDATANLERAVEDLLLSKRFDNGMICATE | not soluble
11 | MSLNADKFRKIDAHSHIQVLGYPFNVSITPEEFLSLMEAYNIEIAIISDVNNDNIAKIVKEYPDKLVGIYWPNPRDEKSINETEKFLEKYEFRGIKLHPLLNMFSPSDPRVEKIMKIAEEFNVHVQIHSGHPPTSLPWQIEELARKFPEVKIVMVHMGHGNAYYIQGAIEIAGRNENIYLETSGMPMPSKIAEAYEVAPRRVVFGIDLPCHHPVVEIAKVLISGLNEKGMKRVFYENAKVLLEGHHHHHH | not soluble
12 | MISVFDIYKIGVGPSSSHTVGPMKAGKEFIDDLRAMGKLRDITKITVDVYGSLSLTGKGHHTDIAIIMGLAGNSPEKVDIDSIPGFIARVEETERLPVGMHCHTVSFPREGGMNFHKTNLELHENGMQIHAWIDDEKVYSKTYYSIGGGFIVDEENFGK | not soluble
13 | MCSLNELITGIKELPEPDLTASRLMDAAADYVPLKLRGHIDAKDINSSPKTLENGGTEFFQALIDITHPRLRLYGSGKELAENVRIHRNFPTSHRSPIIYKSLDNNQYIYKTDVFIIIQNICGYRKDSTNNIIELNRFLEVMYLKAREETSRKYLEFVRFDADSFRKIEKKFEKFNQGACFVDRSLEQRNSNGDHLPIVQELDSMKSIEFIQHPIQRAKHKAVPIEDLKPGSYCILAVDALFELFNEIIWGSRVFEKHKVPKIIEYVLKIPTLLFKSELRFPHFIKTAHLHRLLASFEVSLSSFHFPANPVKEVRNAKADHGFTLQNLKNELTYLGLTETFPDITDYAEIAYNEVMRVKKEMLLRTCDLFDAIEHCQLLCIFNRSPFLKQFLHNQKACHRLVGLHCDLCIKEKVEKSENQEAWDLDESSSTKSPIDCKKCSQTLQTIEDVKKELKTSQNKENKMRKKVSELEKKLDVENVQNEQEVKEMEDDLRGKQEELNILRNDSLKVHDVLMEIADLKQKHSKLEKHVEGLKEENLKQERNYNLTQSNLEANLSSMREGLTILQQYTEELEQERQKYQEMLTARSEETSVQAEPAGGEEEMLDVTKQIEEAKEEKIRLKAEHDANERIIQQLLDKLANFS | not soluble
14 | LSGSIYVLGGGENLKVTMMDAALKYAEANIPVIPLHWICEDGSCSCKTRSDCDSKGKHSLYTGWYNNSTTDVEQIRKWWTNVNVNKNLVLSKVS | not soluble
15 | MIVPGGFPAPVTGSAVAASPPLPTVRLLSLDAHGRVLDWINWQDAACLYARDAVSWTLGEPCMQIHGGVSRLTGERSVLELHPIIAARGHARSRALDPTPTLTNTALFARDSQLCMYCGQHFSRPHLTRDHVMPVSKGGRDSWENVVTACFQCNSRKANRTPQQAHMPLLAVPYRPSWIEHLILSNRNILSDQMAFLRAQLPKRSKLSLLEHHHHHH | not soluble
16 | MGSDKIHHHHHHMILLNKPVAPNLQKLNSYLERVHDTGWYTNFGPLHNELTEKLEEYLGVSNLLLVSNGTLAIQLAAKVFNVKQTITTPFSFVATSSSLLWQGIDLAYSDIERSSLNICPEELEKNWKSNDSYDSLLATHVYGNPCDVQKIDEIAKKYNKKIMYDAAHAFGIKVGNKSVLSFGDASTLSFHATKVFHTVEGGAVIFKDRNHFDEAKSLINFGIQNDGTLGTPGINAKLNEYQAAVGLCLLESIDDIICHRSNLFEIYRKELSNVIELPLWHRDSNYNGAYMPILPSTEVERLKIGEQLKANNIQFRRYFYPSLDKAYLRVKSFNCPVSNYIAENALCLPLHMYMTKEDVLKITATIKEIY | not soluble
17 | MAEHGETQADEEEEEQVWSWGAGTDGQLGTTKLQDELLPQLLSLTSLPSISMLACGGAHVIALTSGGKVFTWGRGSSGQLGHGDILNITLPKLVSFFDDSVITQAAAGWSHSGFVSDSGCIFTCGNGSFGQLGHGDTLSLSTPAKVSHFNNDSVKMVACGMRHSLVLFAGNQVCGFGSGKRGQLGFSSDRIKSVNLPCVVSGLKDVEVVRISANGDHSAAISADGQFFSWGRGFCGGPDVHAPQSLPSPLSFREVAVGWNHALLLTVDGEVFKLGSTLNKQPEKQQLQIDSSEALFEKVPDFDGVKVMQIAAGAEHSAAVTENGEVKTWGWGEHGQLGLGNTNDQTSPELVSLGSIDLRTKEIKVYCGSGFTYAVKRKQELSPTSS | soluble
18 | MLTSDPSESTAHLQRTISNLSARNAKLAELLKASRDKLSILQDQLEDLAAPPSTYGTFLEFSGGRETAEVFTAGRHMRLRISPDVEKAELVPGVQVRLGEASQVVEVCDISTTGQLATLVELLADNRGLICDHTGEERVVKLAAALTEGVDKLPKAGDTLLVDPRAGYAFEVIPKTEVSTLA | soluble
19 | MLLIDKGHDIYKRNCPILQKKIEKCPPPAGKKDYAGCVPACSITNGFGGAGAYSDGKFNITSEFGGWMTDYLPASTVLELIRYVDEINLKHGATTSITDPMTDKVKEIERRAYAAGLKLLRAYVRHLGTEQNLAILQSIFEYLRERITMRFKTEVDDIVTERTEDGHEVKGVVLKNGETLTAEKVVIAPGRDGSVWLSKLLRKRRLRMINNQVDIGVRVETSNIVMQEINEHLYEGKFIFNTSVGTQVRTFCSNPSGHVVVENHSGIMLANGHAYKDPKLGSSNTNFALLVSHKFADPFDKPNEYAHEISRLANALSNGGIIVQKYGDILKGRRSTEKRIKEGFIEPTLKEAVPGDLGLVLPYNTMKSLIEMTEALNHVTPGLASEHTLFYGVEAKFYSARPKLNDRFETEIAGLYVGGDGAGITRGLAQASACGVWIARDIVEKLTRLEHHHHHH | not soluble
20 | GEGLGEEVIEEVYEELLSSFDTEYGGFSGAPKFPTPHKISFLLRYWRRSRNPEALHMAEYTLDKMRRGGIYDHLGSGFHRYSTDSMWLLPHFEKMLYDQALTAIAYTEAYQVTGKDLYKETAEGILDYVLRDLTSPEGGFYCGEDADVEREEGKYYLWTLEEIRSILDPEDSELIIKMFNLREEGNFEEEIRGRETGTNLFYMARSPGSLAAKMKIPVEEVEKKVKAAREKLLKARYERKRPSLDDKILTDWNGLMIAAFAKGYQVFGEQRYLKAAEKAADFILMALYSPGDGLLHRYRDGVAGISGTSDDYAFLIHGLLELYEAGFKMRYLKAAVSLNSELLECFWDPVNGGLYFTANDSEALIFRKKE | not soluble
21 | MGHHHHHHSHEHCAIILEDDRSDISSTCANNINHNTELLPIELDTLVGKGRFAEVYKAKLKQNTSEQFETVAVKIFPYEEYASWKTEKDIFSDINLKHENILQFLTAEERKTELGKQYWLITAFHAKGNLQEYLTRHVISWEDLRKLGSSLARGIAHLHSDHTPCGRPKMPIVHRDLKSSNILVKNDLTCCLCDFGLSLRLDPTLSVDDLANSGQVGTARYMAPEVLESRMNLENAESFKQTDVYSMALVLWEMTSRCNAVGEVKDYEPPFGSKVREHPCVESMKDNVLRDRGRPEIPSFWLNHQGIQMVCETLTECWDHDPEARLTAQCVAERFSELEHLDRLSGRSCSEEKIPEDGSLNTTK | not soluble
